B1: Serine/threonine-protein kinase MRCK alpha (Homo sapiens), Q5VT25 (parent)
chain: MSGEVRLRQLEQFILDGPAQTNGQCFSVETLLDILICLYDECNNSPLRREKNILEYLEWAKPFTSKVKQMRLHREDFEILKVIGRGAFGEVAVVKLKNADKVFAMKILNKWEMLKRAETACFREERDVLVNGDNKWITTLHYAFQDDNNLYLVMDYYVGGDLLTLLSKFEDRLPEDMARFYLAEMVIAIDSVHQLHYVHRDIKPDNILMDMNGHIRLADFGSCLKLMEDGTVQSSVAVGTPDYISPEILQAMEDGKGRYGPECDWWSLGVCMYEMLYGETPFYAESLVETYGKIMNHKERFQFPAQVTDVSENAKDLIRRLICSREHRLGQNGIEDFKKHPFFSGIDWDNIRNCEAPYIPEVSSPTDTSNFDVDDDCLKNSETMPPPTHTAFSGHHLPFVGFTYTSSCVLSDRSCLRVTAGPTSLDLDVNVQRTLDNNLATEAYERRIKRLEQEKLELSRKLQESTQTVQALQYSTVDGPLTASKDLEIKNLKEEIEKLRKQVTESSHLEQQLEEANAVRQELDDAFRQIKAYEKQIKTLQQEREDLNKELVQASERLKNQSKELKDAHCQRKLAMQEFMEINERLTELHTQKQKLARHVRDKEEEVDLVMQKVESLRQELRRTERAKKELEVHTEALAAEASKDRKLREQSEHYSKQLENELEGLKQKQISYSPGVCSIEHQQEITKLKTDLEKKSIFYEEELSKREGIHANEIKNLKKELHDSEGQQLALNKEIMILKDKLEKTRRESQSEREEFESEFKQQYEREKVLLTEENKKLTSELDKLTTLYENLSIHNQQLEEEVKDLADKKESVAHWEAQITEIIQWVSDEKDARGYLQALASKMTEELEALRNSSLGTRATDMPWKMRRFAKLDMSARLELQSALDAEIRAKQAIQEELNKVKASNIITECKLKDSEKKNLELLSEIEQLIKDTEELRSEKGIEHQDSQHSFLAFLNTPTDALDQFERSPSCTPASKGRRTVDSTPLSVHTPTLRKKGCPGSTGFPPKRKTHQFFVKSFTTPTKCHQCTSLMVGLIRQGCSCEVCGFSCHITCVNKAPTTCPVPPEQTKGPLGIDPQKGIGTAYEGHVRIPKPAGVKKGWQRALAIVCDFKLFLYDIAEGKASQPSVVISQVIDMRDEEFSVSSVLASDVIHASRKDIPCIFRVTASQLSASNNKCSILMLADTENEKNKWVGVLSELHKILKKNKFRDRSVYVPKEAYDSTLPLIKTTQAAAIIDHERIALGNEEGLFVVHVTKDEIIRVGDNKKIHQIELIPNDQLVAVISGRNRHVRLFPMSALDGRETDFYKLSETKGCQTVTSGKVRHGALTCLCVAMKRQVLCYELFQSKTRHRKFKEIQVPYNVQWMAIFSEQLCVGFQSGFLRYPLNGEGNPYSMLHSNDHTLSFIAHQPMDAICAVEISSKEYLLCFNSIGIYTDCQGRRSRQQELMWPANPSSCCYNAPYLSVYSENAVDIFDVNSMEWIQTLPLKKVRPLNNEGSLNLLGLETIRLIYFKNKMAEGDELVVPETSDNSRKQMVRNINNKRRYSFRVPEEERMQQRREMLRDPEMRNKLISNPTNFNHIAHMGPGDGIQILKDLPMNPRPQESRTVFSGSVSIPSITKSRPEPGRSMSASSGLSARSSAQNGSALKREFSGGSYSAKRQPMPSPSEGSLSSGGMDQGSDAPARDFDGEDSDSPRHSTASNSSNLSSPPSPASPRKTKSLSLESTDRGSWDP

Variants of: B1
Settings: with cdc42_human CDC42, P60953
cdc42_human CDC42, P60953, sequence (P60953 whole entry, looked up): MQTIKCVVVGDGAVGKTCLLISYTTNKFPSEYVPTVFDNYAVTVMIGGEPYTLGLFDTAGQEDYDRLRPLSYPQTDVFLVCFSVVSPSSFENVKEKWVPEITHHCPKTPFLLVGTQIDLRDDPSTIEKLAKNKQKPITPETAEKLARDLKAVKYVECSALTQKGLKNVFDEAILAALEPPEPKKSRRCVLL

effect of a mutation on the interaction | Variant
decreasing interaction | H1582A
decreasing interaction | H1579A

— IntAct's records for PubMed 9418861
